One block for each molecule: values may come before it.
Columns and labels:
[1] = molecular target: eIF2 (yeast (Saccharomyces cerevisiae)) (UniProt P20459); assay: pull-down; GDF assay (competition): 1 µg eIF2 or eIF2αP and 1 µg GST-eIF5 bound to glutathione sepharose beads 2 h at 4°C, washed, then challenged 2 h at 4°C with increasing concentrations of Flag-eIF2B complexes, subunits or eIF5-Flag; 30 mM HEPES, 100 mM KCl, 100 µM GDP, 5 mM DTT, 1 mM NaF, 2.5 mM MgCl2, 0.05% Triton X-100; bound eIF2 by immunoblot; fit y = 1 − [x/(x + IC50)]
Rab9 = Rab9 (UniProt P51151); conditions: cited from earlier work
[2] = molecular target: eIF5 (Saccharomyces cerevisiae) (UniProt P38431); conditions: cited from earlier work
[3] = molecular target: eIF2 (yeast (Saccharomyces cerevisiae)) (UniProt P20459)
[4] = molecular target: eIF2 (yeast (Saccharomyces cerevisiae)) (UniProt P20459); assay: other; displacement of eIF2 from GST-eIF5 (GDF assay); conditions: complex; chains chain;chain;chain;chain
[5] = molecular target: eIF2 (yeast (Saccharomyces cerevisiae)) (UniProt P20459); assay: pull-down; GDF assay (competition): 1 µg eIF2 or eIF2αP and 1 µg GST-eIF5 bound to glutathione sepharose beads 2 h at 4°C, washed, then challenged 2 h at 4°C with increasing concentrations of Flag-eIF2B complexes, subunits or eIF5-Flag; 30 mM HEPES, 100 mM KCl, 100 µM GDP, 5 mM DTT, 1 mM NaF, 2.5 mM MgCl2, 0.05% Triton X-100; bound eIF2 by immunoblot; fit y = 1 − [x/(x + IC50)]; remark: listed apart in the source
eIF2 = molecular target: T1, eIF2 (yeast (Saccharomyces cerevisiae), UniProt P20459 1-304; P09064 1-285; P32481 1-527); assay: displacement of eIF2 from GST-eIF5 (GDF assay)
T1 chain 1: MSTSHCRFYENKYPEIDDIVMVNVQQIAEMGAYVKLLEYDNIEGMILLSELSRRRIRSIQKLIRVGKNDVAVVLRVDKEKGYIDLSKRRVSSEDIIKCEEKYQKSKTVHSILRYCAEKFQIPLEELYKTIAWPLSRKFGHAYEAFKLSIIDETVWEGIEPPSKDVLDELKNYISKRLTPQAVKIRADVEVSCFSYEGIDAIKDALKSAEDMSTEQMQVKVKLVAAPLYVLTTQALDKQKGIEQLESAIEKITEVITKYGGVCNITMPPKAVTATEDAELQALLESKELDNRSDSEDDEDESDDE
T1 chain 2: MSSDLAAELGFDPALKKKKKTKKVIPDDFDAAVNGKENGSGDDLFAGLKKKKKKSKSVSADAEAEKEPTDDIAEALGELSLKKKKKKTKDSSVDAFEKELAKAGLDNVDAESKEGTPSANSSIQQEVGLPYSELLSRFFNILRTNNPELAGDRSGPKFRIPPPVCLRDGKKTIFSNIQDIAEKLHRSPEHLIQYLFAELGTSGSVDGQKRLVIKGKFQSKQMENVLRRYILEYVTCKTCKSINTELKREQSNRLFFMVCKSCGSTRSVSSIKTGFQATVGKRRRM
T1 chain 3: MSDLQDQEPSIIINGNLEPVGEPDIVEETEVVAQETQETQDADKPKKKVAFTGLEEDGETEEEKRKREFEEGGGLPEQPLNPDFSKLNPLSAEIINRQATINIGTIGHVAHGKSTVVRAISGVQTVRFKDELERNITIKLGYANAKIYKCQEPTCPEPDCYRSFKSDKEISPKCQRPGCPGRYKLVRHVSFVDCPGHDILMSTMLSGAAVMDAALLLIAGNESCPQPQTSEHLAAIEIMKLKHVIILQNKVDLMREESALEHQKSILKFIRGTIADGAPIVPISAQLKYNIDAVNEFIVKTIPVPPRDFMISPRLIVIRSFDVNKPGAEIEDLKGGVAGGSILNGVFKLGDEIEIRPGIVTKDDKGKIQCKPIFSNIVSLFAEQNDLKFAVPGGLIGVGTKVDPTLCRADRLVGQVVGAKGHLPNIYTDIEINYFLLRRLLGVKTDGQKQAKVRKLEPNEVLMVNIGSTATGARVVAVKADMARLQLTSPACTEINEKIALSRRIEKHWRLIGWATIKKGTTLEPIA

Chain of Rab9 (P51151 2-201): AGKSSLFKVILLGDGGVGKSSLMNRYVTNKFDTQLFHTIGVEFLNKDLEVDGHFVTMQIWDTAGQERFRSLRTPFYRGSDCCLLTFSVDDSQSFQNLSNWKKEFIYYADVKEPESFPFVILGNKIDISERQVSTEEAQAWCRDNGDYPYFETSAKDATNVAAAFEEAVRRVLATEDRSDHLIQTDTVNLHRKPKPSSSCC
Chain of eIF5 (Saccharomyces cerevisiae) (P38431 whole entry): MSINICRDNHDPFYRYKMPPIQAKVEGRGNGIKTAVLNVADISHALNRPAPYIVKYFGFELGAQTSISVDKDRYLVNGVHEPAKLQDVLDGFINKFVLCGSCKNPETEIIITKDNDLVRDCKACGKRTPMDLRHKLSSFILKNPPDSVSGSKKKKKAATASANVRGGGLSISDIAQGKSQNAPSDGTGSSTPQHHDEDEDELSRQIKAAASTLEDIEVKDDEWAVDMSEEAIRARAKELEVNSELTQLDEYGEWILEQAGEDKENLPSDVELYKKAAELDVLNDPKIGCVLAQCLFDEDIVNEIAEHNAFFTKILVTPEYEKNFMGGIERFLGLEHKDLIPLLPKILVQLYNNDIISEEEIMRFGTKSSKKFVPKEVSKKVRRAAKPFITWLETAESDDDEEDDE

Molecule: GDIα (from UniProt P21856)
Kd (Rab9): < 23 nM

Molecule: eIF2 (from UniProt P20459)
Kd [2]: 23 nM

Molecule: eIF2B-γG12V (mutant eIF2B complex) (from UniProt P14741 1-305; P32502 1-381; P09032 1-578; P12754 1-651; P32501 1-712)
K1/2 of mutant eIF2B for [3H]GDP release from eIF2 prebound to eIF5 (coupled GDI–GDF–GEF assay; pair displaced: eIF2 and eIF5) [3]: 134 nM

Molecule: eIF2B-γL480Q (mutant eIF2B complex) (from UniProt P14741 1-305; P32502 1-381; P09032 1-578; P12754 1-651; P32501 1-712)
K1/2 of mutant eIF2B for [3H]GDP release from eIF2 prebound to eIF5 (coupled GDI–GDF–GEF assay; pair displaced: eIF2 and eIF5) [3]: 134 nM

B2: eIF2Bγɛ subcomplex (catalytic subcomplex of eIF2B) (complex)
chain 1: MSIQAFVFCGKGSNLAPFTQPDFPFQTQNKDSTAATSGDKLNELVNSALDSTVINEFMQHSTRLPKALLPIGNRPMIEYVLDWCDQADFKEISVVAPVDEIELIESGLTSFLSLRKQQFELIYKALSNSNHSHHLQDPKKINFIPSKANSTGESLQKELLPRINGDFVILPCDFVTDIPPQVLVDQFRNRDDNNLAMTIYYKNSLDSSIDKKQQQKQKQQQFFTVYSENEDSERQPILLDVYSQRDVTKTKYLQIRSHLLWNYPNLTVSTKLLNSFIYFCSFELCQLLKLGPQSMSRQASFKDPFTGNQQQQNPPTTDDDEDRNHDDDDDYKPSATSIQPTYFKKKNDLILDPINCNKSLSKVFRDLSRRSWQHSKPREPIGIFILPNETLFIRANNLNAYMDANRFVLKIKSQTMFTKNIQIQSAAIGADAIVDPKCQISAHSNVKMSVLGTQANIGSRCRVAGSLLFPGVHLGDEVILENCIIGPMAKIGSKCKLSNCYIEGHYVVEPKNNFKGETLANVYLDEDEEDELIYDDSVIAGESEIAEETDSDDRSDEDSDDSEYTDEYEYEDDGLFER
chain 2: MAGKKGQKKSGLGNHGKNSDMDVEDRLQAVVLTDSYETRFMPLTAVKPRCLLPLANVPLIEYTLEFLAKAGVHEVFLICSSHANQINDYIENSKWNLPWSPFKITTIMSPEARCTGDVMRDLDNRGIITGDFILVSGDVLTNIDFSKMLEFHKKMHLQDKDHISTMCLSKASTYPKTRTIEPAAFVLDKSTSRCIYYQDLPLPSSREKTSIQIDPELLDNVDEFVIRNDLIDCRIDICTSHVPLIFQENFDYQSLRTDFVKGVISSDILGKHIYAYLTDEYAVRVESWQTYDTISQDFLGRWCYPLVLDSNIQDDQTYSYESRHIYKEKDVVLAQSCKIGKCTAIGSGTKIGEGTKIENSVIGRNCQIGENIRIKNSFIWDDCIIGNNSIIDHSLIASNATLGSNVRLNDGCIIGFNVKIDDNMDLDRNTKISASPLKNAGSRMYDNESNEQFDQDLDDQTLAVSIVGDKGVGYIYESEVSDDEDSSTEACKEINTLSNQLDELYLSDDSISSATKKTKKRRTMSVNSIYTDREEIDSEFEDEDFEKEGIATVERAMENNHDLDTALLELNTLRMSMNVTYHEVRIATITALLRRVYHFIATQTLGPKDAVVKVFNQWGLLFKRQAFDEEEYIDLMNIIMEKIVEQSFDKPDLILFSALVSLYDNDIIEEDVIYKWWDNVSTDPRYDEVKKLTVKWVEWLQNADEESSSEEE
IC50 (eIF2): 20 nM

Continued, values first:

IC50 [1]: 244 nM
Molecule: Flag-tagged eIF5 (eIF5-Flag) (from UniProt P38431 1-405) (natural protein)

IC50 [4]: 25.7 nM
Molecule: four-subunit eIF2B complex lacking the α subunit (eIF2Bβδγɛ), P32502 1-381; P12754 1-651; P09032 1-578; P32501 1-712

IC50 [5]: 215 nM
B1: eIF2Bɛ subunit alone (natural protein)
chain: B2 chain 2

IC50 (eIF2): 318 nM
B3: eIF2Bγ subunit alone (natural protein)
chain: B2 chain 1

Reference: paper PMC3877758 (2013)
